Substrate in this data set: CCCC(=O)SCC[N+](C)(C)C
Briefly: purified protein. It counts as biochemical, Homo sapiens. Particulars: 24 °C, 317 pM enzyme, 0.1 mM DTNB, 0.005-3 mM substrate.

B1: human butyrylcholinesterase (Homo sapiens) (protein)
chain: EDDIIIATKNGKVRGMNLTVFGGTVTAFLGIPYAQPPLGRLRFKKPQSLTKWSDIWNATKYANSCCQNIDQSFPGFHGSEMWNPNTDLSEDCLYLNVWIPAPKPKNATVLIWIYGGGFQTGTSSLHVYDGKFLARVERVIVVSMNYRVGALGFLALPGNPEAPGNMGLFDQQLALQWVQKNIAAFGGNPKSVTLFGESAGAASVSLHLLSPGSHSLFTRAILQSGSFNAPWAVTSLYEARNRTLNLAKLTGCSRENETEIIKCLRNKDPQEILLNEAFVVPYGTPLSVNFGPTVDGDFLTDMPDILLELGQFKKTQILVGVNKDEGTAFLVYGAPGFSKDNNSIITRKEFQEGLKIFFPGVSEFGKESILFHYTDWVDDQRPENYREALGDVVGDYNFICPALEFTKKFSEWGNNAFFYYFEHRSSKLPWPEWMGVMHGYEIEFVFGLPLERRDNYTKAEEILSRSIVKRWANFAKYGNPNETQNNSTSWPVFKSTEQKYLTLNTESTRIMTKLRAQQCRFWTSFFPKVLEMTGNIDEAEWEWKAGFHRWNNYMMDWKNQFNDYTSKKESCVGL
In the case of B1, the Michaelis constant (Km) stood at 100 µM.
